Experimental data as given in paper PMC7960543 (The Journal of Biological Chemistry, 2021).

B1: recombinant soluble CD40L (residues 118–261) with no N-terminal KGD motif, wild type [not stated] / CD40 fragment (residues 21–144) fused to GST [not stated] (parent complex)
chain 1: QNPQIAAHVISEASSKTTSVLQWAEKGYYTMSNNLVTLENGKQLTVKRQGLYYIYAQVTFCSNREASSQAPFIASLCLKSPGRFERILLRAANTHSSAKPCGQQSIHLGGVFELQPGASVFVNVTDPSQVSHGTGFTSFGLLKL
chain 2: EPPTACREKQYLINSQCCSLCQPGQKLVSDCTEFTETECLPCGESEFLDTWNRETHCHQHKYCDPNLGLRVQQKGTSETDTICTCEEGWHCTSEACESCVLHRSCSPGFGVKQIATGVSDTICE

Variants of: B1
Experiment: ELISA; GST-CD40 (21–144) immobilized at 100 μg/ml in PBS; CD40L mutants 20 μg/ml; detection with anti-histidine Abs; read off a plot

Variant | response [OD450]
chain 1 K26T | ~0.32
chain 1 G27E | ~0.35

Next, values leading:

response [OD450] | Variant
~0.29 | chain 1 S11R, chain 1 E12G
~0.24 | chain 1 L38P
